Test results as given in patent US7078174 (WALTER AND ELIZA HALL INSTITUTE OF MEDICAL RESEARCH, dated 2006).
Values belong to the binder of their own block, whether it stands above or below them.

What was measured:
[1] = biological target: T1, gp130 (endogenous, M1 cells) (murine, UniProt Q00560 23-917); assay: anti-FLAG affinity column from unstimulated M1 cells, FLAG peptide elution, Western blot
T1 sequence (looked up): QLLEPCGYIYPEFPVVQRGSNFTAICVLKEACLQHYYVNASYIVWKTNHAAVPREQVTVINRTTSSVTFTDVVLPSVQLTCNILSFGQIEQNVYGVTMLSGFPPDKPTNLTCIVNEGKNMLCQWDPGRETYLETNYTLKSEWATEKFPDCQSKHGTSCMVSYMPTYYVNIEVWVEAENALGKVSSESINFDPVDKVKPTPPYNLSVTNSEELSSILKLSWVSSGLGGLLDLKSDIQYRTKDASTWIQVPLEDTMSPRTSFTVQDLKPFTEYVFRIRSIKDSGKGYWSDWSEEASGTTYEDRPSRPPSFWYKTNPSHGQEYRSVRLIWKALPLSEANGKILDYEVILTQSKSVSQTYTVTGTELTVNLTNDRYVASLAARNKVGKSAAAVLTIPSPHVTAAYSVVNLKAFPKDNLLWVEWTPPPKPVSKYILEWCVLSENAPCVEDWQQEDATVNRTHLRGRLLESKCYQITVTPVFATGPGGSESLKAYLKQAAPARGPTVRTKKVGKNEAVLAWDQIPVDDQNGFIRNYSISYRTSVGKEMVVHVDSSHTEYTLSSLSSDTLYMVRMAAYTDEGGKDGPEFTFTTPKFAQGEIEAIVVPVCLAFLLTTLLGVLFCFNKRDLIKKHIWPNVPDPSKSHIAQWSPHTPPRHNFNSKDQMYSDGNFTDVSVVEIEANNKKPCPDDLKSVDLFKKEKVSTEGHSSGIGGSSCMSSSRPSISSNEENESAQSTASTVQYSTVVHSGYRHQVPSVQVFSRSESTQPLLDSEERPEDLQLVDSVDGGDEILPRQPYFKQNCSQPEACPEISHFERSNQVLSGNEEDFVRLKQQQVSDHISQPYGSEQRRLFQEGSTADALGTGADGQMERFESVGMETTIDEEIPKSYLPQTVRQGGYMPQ
Excerpt: (§1) The inventors passed lysates from 10^9 unstimulated M1 cells expressing FLAG-tagged SOCS-1 through an anti-FLAG affinity column which was then eluted with FLAG peptide. The eluate was then subjected to SDS-PAGE and the proteins were Western blotted. The blot was then probed with anti-FLAG antibodies to confirm the presence of SOCS-1 and with a range of antibodies against proteins thought to interact with SOCS-1 (FIG. 7). It can be seen that SOCS-1 is capable of forming a complex with elongin B and elongin C, cullin 2, as well as JAK1 and gp130. To determine whether proteins in this complex interact directly or indirectly with SOCS-1, or whether all the proteins can be found together in a single complex, or whether separate complexes are, for example, formed between SOCS-1, JAK-1 and gp130 on one hand and between SOCS-1, elongin B and C and cullin-2, is addressed in part by performing the primary immunoprecipitation using a different antibody.

[2] = biological target: cullin 2 (endogenous, M1 cells) (murine, UniProt Q9D4H8 1-745); assay: as above
Excerpt: as §1

[3] = biological target: JAK1 (endogenous, M1 cells) (murine, UniProt P52332 1-1153); assay: as above
Excerpt: as §1

[4] = biological target: T2, elongin C (endogenous, murine M1 cells) (murine, UniProt P83940 1-112); assay: anti-FLAG M2 immunoprecipitation from M1 cells, FLAG peptide elution, Western blot
T2 construct: Endogenous protein from cell lysate; present together with elongin B; also called 15 kDa band
Experimental: FIG. 2 is a photographic representation showing competition of SOCS-1 SOCS box interaction with elongin C. Biotinylated SOCS-1 SOCS box peptide was immobilized on streptavidin-agarose resin and used to affinity purify interacting proteins from M1 cellular extracts in the presence (+) or absence (–) of […] competing non-biotinylated SOCS box peptides. Proteins were separated by SDS-PAGE on a 4–15% w/v acrylamide gel, and bands were visualized by silver staining. Soluble SOCS box peptides corresponding to SOCS-1, ASB-2 and WSB-2 prevented binding of elongin C to immobilized SOCS-1 SOCS box FIG. 3 is a photographic representation showing interaction of SOCS-1 with endogenous elongins B and C. Cellular extracts from M1 cells stably expressing either full-length SOCS-1 or SOCS-1 lacking SOCS box (both proteins were N-terminally FLAG-tagged) were incubated with anti-FLAG antibody M2 resin and bound cellular proteins were eluted from the columns with FLAG peptide as described in Materials and Methods. Lanes 1–3 correspond to column eluates 3 to 5 from M1 cells expressing full-length SOCS-1 and lanes 4–6 correspond to column eluates 3 to 5 from M1 cells expressing SOCS-1 lacking SOCS box. The panels from top to bottom correspond to Western blot analyses by anti-FLAG, anti-elongin C, anti-elongin B, and a mixture of anti-elongin B and anti-elongin C, respectively. […]

[5] = biological target: T3, GST (glutathione-S-transferase control) (UniProt P08515 1-218 = GST, covalently coupled to NHS-activated Sepharose resin); assay: GST-Sepharose pull-down from M1 cell lysate, Coomassie gel and Western blot
T3 construct: also called GST-Sepharose; GST control
Experimental: M1 cells (2 ×10^10) were lysed on ice for 30 min in 100 ml of lysis buffer supplemented with protease inhibitors (Complete Cocktail tablets; Boehringer Mannheim, Mannheim, Germany), 1 mM PMSF, 1 mM Na_3VO_4 and 1 mM NaF. The total cell lysate was centrifuged at 15,000 rpm (SS34 rotor) for 15 min at 4° C. and the clarified supernatant pre-incubated with 1 ml of GST-Sepharose resin for 2 h at 4° C. Half the GST-Sepharose-depleted M1 cell lysate was incubated with 1 ml of GST-SOCS-1 SOCS box- and the other half with GST-SOCS-3 SOCS box-Sepharose resin for 2 h at 4° C. The affinity resins were washed with 40 ml of lysis buffer and then eluted with 8×0.5 ml of elation buffer. Eluates were concentrated to ~40 μl, mixed with 15 μl of 4×SDS sample buffer containing 0.4 M DTT and resolved on a 14% polyacrylamide gel (Novex). The gel was stained for 5 min with 0.1% w/v Coomassie blue in 50% w/v methanol and destained in 12% w/v methanol and 7% w/v acetic acid.
Isolated SOCS box sequences were used as affinity reagents to identify interacting proteins in cell lysates. […] (GST) fusion proteins containing the SOCS box sequences from SOCS-1 or SOCS-3 were coupled to Sepharose beads and used as affinity resins to bind proteins from M1 cell lysates. […]

[6] = biological target: T4, FLAG-tagged SSB-1 truncated form lacking only the SOCS box (mouse, UniProt Q9D5L7 1-231, limits assumed); assay: co-immunoprecipitation with anti-myc from transfected 293T cells, Western blot with anti-FLAG
T4 construct: domain: SSB-1 lacking only the SOCS box; Transiently expressed in 293T cells; also called truncated form of SSB-1 lacking only the SOCS box
T4 sequence: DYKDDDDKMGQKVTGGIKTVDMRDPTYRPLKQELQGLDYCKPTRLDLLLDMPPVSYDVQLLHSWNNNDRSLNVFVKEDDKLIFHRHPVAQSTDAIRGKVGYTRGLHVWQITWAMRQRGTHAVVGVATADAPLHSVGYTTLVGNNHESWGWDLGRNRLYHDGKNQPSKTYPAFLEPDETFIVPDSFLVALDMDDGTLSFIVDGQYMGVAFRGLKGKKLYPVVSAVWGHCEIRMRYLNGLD
Excerpt: To further confirm the generality of this interaction for other proteins containing a SOCS box, 293T fibroblasts were transfected with N-terminally FLAG-tagged WSB-2 or SSB-1 along with elongin B containing a FLAG epitope or elongin C containing a myc epitope.

Chain of cullin 2 (endogenous, M1 cells) (Q9D4H8 whole entry): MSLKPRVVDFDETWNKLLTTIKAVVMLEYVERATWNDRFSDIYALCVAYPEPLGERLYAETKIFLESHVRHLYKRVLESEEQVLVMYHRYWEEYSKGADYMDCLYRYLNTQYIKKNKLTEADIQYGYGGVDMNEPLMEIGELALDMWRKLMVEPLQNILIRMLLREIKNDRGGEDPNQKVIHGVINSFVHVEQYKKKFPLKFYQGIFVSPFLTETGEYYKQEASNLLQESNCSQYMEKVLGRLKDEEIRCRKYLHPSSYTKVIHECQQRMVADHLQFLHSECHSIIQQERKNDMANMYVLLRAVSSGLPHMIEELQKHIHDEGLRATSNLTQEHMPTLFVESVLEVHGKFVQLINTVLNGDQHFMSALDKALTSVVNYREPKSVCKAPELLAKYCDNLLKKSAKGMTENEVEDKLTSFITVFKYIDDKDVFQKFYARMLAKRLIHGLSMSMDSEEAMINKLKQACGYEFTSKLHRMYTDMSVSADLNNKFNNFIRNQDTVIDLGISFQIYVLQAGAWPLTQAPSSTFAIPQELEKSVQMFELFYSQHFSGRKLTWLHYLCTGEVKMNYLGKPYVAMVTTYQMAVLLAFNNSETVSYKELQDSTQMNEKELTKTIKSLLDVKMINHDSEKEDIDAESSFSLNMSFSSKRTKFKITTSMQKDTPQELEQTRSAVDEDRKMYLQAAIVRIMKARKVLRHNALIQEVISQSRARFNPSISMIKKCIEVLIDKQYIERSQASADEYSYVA
Chain of JAK1 (endogenous, M1 cells) (P52332 whole entry): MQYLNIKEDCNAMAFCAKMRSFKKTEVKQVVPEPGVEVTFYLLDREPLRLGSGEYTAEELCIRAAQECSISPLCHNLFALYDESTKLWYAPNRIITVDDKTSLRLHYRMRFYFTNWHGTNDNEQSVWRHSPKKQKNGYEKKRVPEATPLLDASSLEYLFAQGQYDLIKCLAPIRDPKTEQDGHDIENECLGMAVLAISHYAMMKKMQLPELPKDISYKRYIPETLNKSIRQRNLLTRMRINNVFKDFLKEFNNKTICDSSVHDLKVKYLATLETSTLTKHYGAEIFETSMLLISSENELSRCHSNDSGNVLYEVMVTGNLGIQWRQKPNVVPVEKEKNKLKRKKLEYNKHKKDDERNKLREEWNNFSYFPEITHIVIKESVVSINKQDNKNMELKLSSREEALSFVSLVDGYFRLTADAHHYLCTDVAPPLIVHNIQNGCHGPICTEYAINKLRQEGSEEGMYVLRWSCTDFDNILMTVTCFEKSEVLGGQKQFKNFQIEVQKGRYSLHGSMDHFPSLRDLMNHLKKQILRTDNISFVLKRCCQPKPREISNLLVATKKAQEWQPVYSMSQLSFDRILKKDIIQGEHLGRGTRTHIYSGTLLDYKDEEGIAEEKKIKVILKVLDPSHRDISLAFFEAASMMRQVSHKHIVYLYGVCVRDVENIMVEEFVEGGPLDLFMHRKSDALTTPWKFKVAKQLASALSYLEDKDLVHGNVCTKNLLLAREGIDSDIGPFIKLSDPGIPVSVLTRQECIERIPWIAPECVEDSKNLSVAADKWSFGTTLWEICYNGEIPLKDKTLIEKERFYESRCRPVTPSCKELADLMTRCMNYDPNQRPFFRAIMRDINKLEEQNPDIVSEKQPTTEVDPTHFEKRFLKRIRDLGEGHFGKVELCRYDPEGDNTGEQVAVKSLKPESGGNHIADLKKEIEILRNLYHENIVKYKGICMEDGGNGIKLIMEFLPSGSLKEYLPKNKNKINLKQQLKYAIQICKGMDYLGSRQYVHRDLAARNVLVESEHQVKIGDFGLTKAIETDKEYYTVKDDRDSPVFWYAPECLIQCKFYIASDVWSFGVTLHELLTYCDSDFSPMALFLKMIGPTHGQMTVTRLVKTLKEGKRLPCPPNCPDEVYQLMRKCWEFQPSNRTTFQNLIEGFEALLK
T3 sequence (P08515 whole entry): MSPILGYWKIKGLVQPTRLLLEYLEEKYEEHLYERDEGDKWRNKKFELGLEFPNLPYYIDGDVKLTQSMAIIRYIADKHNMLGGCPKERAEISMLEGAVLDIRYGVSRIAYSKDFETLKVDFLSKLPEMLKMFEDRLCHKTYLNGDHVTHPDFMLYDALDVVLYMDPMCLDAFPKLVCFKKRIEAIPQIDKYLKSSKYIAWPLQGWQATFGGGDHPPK

binding result [1]: binds
binding result [2]: binds
binding result [3]: binds
binding result [4]: binds
B1: N-terminally FLAG-tagged full-length SOCS-1 (other, mouse)
chain: DYKDDDDKMVARNQVAADNAISPAAEPRRRSEPSSSSSSSSPAAPVRPRPCPAVPAPAPGDTHFRTFRSHSDYRRITRTSALLDACGFYWGPLSVHGAHERLRAEPVGTFLVRDSRQRNCFFALSVKMASGPTSIRVHFQAGRFHLDGSRETFDCLFELLEHYVAAPRRMLGAPLRQRRVRPLQELCRQRIVAAVGRENLARIPLNPVLRDYLSSFPFQI
notes: Stably expressed in M1 cells; also called FLAG-tagged SOCS-1; intact SOCS-1

binding result [6]: no binding
B3: elongin B containing a FLAG epitope (other, mouse)
chain: DYKDDDDKMDVFLMIRRHKTTIFTDAKESSTVFELKRIVEGILKRPPEEQRLYKDDQLLDDGKTLGECGFTSQTARPQAPATVGLAFRADDTFEALRIEPFSSPPELPDVMKPQDSGGSANEQAVQ
notes: Transiently expressed in 293T cells; also called FLAG-elongin B

Further lines, the binder ahead of its results:

B2: elongin B (endogenous, murine M1 cells) (other, UniProt P62869 1-118, looked up)
chain: MDVFLMIRRHKTTIFTDAKESSTVFELKRIVEGILKRPPEEQRLYKDDQLLDDGKTLGECGFTSQTARPQAPATVGLAFRADDTFEALRIEPFSSPPELPDVMKPQDSGGSANEQAVQ
notes: Endogenous protein from cell lysate; also called 18 kDa band
binding result [5]: no binding

B4: elongin C containing a myc epitope (other, mouse)
chain: DQKLISEEDLMDGEEKTYGGCEGPDAMYVKLISSDGHEFIVKREHALTSGTIKAMLSGPGQFAENETNEVNFREIPSHVLSKVCMYFTYKVRYTNSSTEIPEFPIAPEIALELLMAANFLDC
notes: Transiently expressed in 293T cells; also called myc-elongin C
binding result [6]: no binding
